Tests used:
SHP2-C SH2 = assay: SH2 binding enrichment of the phosphorylated peptide, bacterial display (enrichment ratio); higher = better substrate or ligand; peptides without Tyr show the background
c-Src SH2 = assay: as above
Grb2 SH2 = Grb2 SH2 (UniProt P62993); assay: as above
Fes = Fes (UniProt P07332); assay: phosphorylation enrichment, bacterial display (enrichment ratio); higher = better substrate or ligand; peptides without Tyr show the background
EPHB1 = EPHB1 (UniProt P54762); assay: as above
EPHB2 = EPHB2 (UniProt P29323); assay: as above
FGFR3 = FGFR3 (UniProt P22607); assay: as above
Hck = Hck (UniProt P08631); assay: as above
Fyn = Fyn (UniProt P06241); assay: as above
AncSZ = assay: as above
c-Src = assay: as above
c-Abl (mouse) = assay: as above
MERTK = MERTK (UniProt Q12866); assay: as above
FGFR1 = FGFR1 (UniProt P11362); assay: as above
Fer (mouse) = assay: as above
Jak2 = Jak2 (UniProt O60674); assay: as above
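Throughout, for SH2 binding enrichment of the phosphorylated peptide, bacterial display: peptide library displayed on the E. coli surface as eCPX fusions, selected cells deep-sequenced, score is each peptide's frequency after selection divided by its frequency in the input.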
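Throughout, for phosphorylation enrichment, bacterial display: 11-residue human phosphosite peptides and single-mutation variants displayed on the E. coli surface, counted by deep sequencing, each peptide's frequency after selection divided by its frequency in the unselected input library; frequency after pTyr selection over input frequency; kinase dosed for 20-30% of maximal phosphorylation in three min.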

Sequence of Jak2 (O60674 whole entry, looked up, the tested form may be a part): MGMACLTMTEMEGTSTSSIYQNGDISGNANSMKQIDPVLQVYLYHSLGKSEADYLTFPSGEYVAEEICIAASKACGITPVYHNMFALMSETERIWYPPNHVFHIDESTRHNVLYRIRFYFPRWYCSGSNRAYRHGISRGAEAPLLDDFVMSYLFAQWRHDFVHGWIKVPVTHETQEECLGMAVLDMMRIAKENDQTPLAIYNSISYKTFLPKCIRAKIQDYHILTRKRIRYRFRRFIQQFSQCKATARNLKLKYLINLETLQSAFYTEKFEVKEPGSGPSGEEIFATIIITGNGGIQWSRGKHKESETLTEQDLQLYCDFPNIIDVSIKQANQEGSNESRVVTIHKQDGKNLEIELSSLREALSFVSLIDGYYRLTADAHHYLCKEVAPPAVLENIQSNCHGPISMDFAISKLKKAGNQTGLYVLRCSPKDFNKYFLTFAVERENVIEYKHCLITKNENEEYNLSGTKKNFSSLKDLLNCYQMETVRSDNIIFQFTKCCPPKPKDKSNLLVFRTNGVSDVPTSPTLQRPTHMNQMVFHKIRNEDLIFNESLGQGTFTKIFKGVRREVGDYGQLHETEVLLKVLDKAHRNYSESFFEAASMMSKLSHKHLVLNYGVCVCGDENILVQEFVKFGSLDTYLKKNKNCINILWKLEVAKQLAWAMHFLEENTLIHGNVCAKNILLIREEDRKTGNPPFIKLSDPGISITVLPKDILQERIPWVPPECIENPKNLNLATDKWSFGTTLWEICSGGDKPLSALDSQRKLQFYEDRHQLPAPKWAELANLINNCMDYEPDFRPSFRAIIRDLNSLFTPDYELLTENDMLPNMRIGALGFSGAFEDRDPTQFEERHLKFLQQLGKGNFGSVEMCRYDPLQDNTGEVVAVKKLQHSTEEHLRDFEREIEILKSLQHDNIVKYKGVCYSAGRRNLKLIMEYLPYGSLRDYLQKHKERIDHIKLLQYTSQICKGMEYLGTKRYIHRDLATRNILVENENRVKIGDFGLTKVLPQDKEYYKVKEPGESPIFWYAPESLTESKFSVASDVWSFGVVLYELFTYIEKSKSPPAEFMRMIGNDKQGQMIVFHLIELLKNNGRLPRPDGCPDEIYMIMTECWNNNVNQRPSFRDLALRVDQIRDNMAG
Sequence of FGFR3 (P22607 whole entry, looked up): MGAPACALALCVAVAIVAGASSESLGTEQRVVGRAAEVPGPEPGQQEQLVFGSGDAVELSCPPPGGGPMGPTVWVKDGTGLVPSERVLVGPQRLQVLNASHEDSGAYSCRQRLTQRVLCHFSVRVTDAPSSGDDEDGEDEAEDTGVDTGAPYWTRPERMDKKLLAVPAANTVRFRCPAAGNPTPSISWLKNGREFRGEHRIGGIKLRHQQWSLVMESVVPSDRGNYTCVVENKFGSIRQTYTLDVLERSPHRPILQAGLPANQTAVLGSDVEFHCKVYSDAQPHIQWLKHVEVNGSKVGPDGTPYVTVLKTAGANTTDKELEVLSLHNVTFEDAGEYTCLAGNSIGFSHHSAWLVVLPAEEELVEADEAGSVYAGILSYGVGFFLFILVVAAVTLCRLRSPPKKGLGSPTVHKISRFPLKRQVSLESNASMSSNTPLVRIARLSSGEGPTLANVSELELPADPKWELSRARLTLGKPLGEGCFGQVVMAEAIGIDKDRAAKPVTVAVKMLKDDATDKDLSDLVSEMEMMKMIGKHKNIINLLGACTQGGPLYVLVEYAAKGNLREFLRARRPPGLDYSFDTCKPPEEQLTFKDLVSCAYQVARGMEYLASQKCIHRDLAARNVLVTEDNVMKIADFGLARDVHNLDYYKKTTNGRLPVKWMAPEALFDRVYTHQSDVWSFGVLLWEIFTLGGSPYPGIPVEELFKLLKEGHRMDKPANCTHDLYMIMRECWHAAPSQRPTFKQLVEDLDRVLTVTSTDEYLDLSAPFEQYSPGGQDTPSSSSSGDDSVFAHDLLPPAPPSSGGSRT
Sequence of Fyn (P06241 whole entry, looked up): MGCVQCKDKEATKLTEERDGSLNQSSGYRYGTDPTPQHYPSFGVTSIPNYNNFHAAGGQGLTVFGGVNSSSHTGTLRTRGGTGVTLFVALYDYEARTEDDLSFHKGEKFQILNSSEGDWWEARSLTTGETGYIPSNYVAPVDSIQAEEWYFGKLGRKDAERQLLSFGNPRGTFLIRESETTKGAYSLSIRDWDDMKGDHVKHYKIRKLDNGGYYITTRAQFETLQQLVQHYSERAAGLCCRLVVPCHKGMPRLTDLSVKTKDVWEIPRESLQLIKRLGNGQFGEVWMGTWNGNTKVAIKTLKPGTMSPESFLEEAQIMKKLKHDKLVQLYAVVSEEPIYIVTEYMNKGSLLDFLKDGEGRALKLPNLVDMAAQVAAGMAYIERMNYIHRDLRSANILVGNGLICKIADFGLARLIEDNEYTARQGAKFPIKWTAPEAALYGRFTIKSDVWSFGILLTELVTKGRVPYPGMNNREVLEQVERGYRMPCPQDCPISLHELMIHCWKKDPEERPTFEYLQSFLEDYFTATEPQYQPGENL
Sequence of Hck (P08631 whole entry, looked up): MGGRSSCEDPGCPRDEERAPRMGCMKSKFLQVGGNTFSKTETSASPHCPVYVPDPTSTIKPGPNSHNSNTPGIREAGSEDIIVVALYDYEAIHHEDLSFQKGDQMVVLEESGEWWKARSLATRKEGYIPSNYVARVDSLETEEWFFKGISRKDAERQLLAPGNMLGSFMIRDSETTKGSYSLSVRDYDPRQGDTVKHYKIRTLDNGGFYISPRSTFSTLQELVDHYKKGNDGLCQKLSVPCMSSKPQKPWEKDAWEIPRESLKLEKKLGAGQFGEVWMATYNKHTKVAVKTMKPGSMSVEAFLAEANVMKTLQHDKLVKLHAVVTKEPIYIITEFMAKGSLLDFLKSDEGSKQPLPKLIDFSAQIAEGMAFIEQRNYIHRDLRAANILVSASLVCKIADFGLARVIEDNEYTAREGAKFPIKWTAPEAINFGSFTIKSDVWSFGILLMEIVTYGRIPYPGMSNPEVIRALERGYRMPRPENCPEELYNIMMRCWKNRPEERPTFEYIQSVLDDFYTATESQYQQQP
Sequence of Grb2 SH2 (P62993 whole entry, looked up): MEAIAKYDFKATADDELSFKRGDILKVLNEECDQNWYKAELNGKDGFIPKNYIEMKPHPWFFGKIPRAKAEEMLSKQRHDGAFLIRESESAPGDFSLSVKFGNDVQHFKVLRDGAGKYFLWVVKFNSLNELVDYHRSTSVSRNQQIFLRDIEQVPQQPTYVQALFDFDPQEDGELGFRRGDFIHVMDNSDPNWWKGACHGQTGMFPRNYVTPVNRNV
Sequence of EPHB1 (P54762 whole entry, looked up): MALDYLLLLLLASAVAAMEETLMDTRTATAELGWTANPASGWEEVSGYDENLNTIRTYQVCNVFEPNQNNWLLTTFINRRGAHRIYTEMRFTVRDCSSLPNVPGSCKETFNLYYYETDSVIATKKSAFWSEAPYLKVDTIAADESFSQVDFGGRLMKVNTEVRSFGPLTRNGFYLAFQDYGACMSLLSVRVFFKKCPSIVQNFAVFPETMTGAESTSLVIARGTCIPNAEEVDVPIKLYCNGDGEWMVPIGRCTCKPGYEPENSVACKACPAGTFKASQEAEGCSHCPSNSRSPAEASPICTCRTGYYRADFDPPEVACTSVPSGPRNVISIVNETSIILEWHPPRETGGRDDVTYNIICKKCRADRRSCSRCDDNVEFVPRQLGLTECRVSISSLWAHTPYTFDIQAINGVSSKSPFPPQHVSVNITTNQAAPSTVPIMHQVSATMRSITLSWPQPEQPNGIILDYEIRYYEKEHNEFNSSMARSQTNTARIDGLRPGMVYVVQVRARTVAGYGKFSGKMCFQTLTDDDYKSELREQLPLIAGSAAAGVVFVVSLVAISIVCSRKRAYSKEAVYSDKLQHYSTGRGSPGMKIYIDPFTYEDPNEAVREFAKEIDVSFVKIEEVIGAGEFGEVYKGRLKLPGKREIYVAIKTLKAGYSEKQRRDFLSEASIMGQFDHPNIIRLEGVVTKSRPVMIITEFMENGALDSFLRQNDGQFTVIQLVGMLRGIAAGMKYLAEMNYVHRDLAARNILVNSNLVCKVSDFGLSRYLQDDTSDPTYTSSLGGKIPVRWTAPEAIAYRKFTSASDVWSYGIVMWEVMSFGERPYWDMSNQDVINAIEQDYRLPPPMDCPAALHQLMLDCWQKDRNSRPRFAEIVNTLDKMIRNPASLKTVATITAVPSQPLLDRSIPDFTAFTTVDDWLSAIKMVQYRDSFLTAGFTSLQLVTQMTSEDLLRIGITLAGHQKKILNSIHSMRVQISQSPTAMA
Sequence of Fes (P07332 whole entry, looked up): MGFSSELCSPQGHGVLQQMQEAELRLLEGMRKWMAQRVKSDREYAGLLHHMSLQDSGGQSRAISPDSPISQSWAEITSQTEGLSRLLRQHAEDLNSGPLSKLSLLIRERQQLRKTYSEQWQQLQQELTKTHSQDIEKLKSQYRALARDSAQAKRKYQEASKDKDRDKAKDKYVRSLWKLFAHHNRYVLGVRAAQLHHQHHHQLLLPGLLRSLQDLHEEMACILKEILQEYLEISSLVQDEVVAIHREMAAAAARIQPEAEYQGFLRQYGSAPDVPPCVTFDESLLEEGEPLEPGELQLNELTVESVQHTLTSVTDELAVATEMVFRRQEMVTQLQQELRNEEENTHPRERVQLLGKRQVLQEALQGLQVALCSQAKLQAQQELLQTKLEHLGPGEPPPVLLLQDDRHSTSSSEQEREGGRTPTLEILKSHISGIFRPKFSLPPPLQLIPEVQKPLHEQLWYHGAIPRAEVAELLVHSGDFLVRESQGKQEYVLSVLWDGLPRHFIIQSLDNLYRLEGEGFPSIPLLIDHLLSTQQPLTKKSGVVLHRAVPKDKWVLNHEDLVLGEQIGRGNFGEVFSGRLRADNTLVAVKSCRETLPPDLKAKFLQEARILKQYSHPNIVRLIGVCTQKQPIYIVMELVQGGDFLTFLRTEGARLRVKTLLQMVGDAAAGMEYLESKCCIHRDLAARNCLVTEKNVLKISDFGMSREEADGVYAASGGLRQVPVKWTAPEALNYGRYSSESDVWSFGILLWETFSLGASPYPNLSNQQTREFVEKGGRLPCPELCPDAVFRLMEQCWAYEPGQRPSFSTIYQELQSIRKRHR

Row | Sequence | SH2 binding enrichment (SHP2-C SH2) | SH2 binding enrichment (c-Src SH2) | SH2 binding enrichment (Grb2 SH2) | phosphorylation enrichment (Fes) | phosphorylation enrichment (EPHB1) | phosphorylation enrichment (EPHB2) | phosphorylation enrichment (FGFR3) | phosphorylation enrichment (Hck) | phosphorylation enrichment (Fyn) | phosphorylation enrichment (AncSZ) | phosphorylation enrichment (c-Src) | phosphorylation enrichment (c-Abl (mouse)) | phosphorylation enrichment (MERTK) | phosphorylation enrichment (FGFR1) | phosphorylation enrichment (Fer (mouse)) | phosphorylation enrichment (Jak2)
1 | PNEAVYTKMMT [G6PD_Y401] | 0.811 | 2 | 0.899 | 0.972 | 0.506 | 0.479 | 0.571 | 1.96 | 2.31 | 1 | 4.58 | 0.674 | 1.48 | 0.555 | 6.07 | 0.838
2 | PNRILYGDFQQ [MYH7_Y715_R719Q] | 0.935 | 0.503 | 0.823 | 0.798 | 0.504 | 0.516 | 0.475 | 1.42 | 4.31 | 0.601 | 3.04 | 0.549 | 0.408 | 0.422 | 0.375 | 0.861
3 | PQGVSYIYTID [DCX_Y103_R102S] | 13 | 0.644 | 1.05 | 1.79 | 0.985 | 0.856 | 1.64 | 5.22 | 10.6 | 1.62 | 6.93 | 1.32 | 3.15 | 1.06 | 0.728 | 1.55
4 | PRSRSYSSTSI [REPS2_Y462] | 0.423 | 0.388 | 0.893 | 1.71 | 0.538 | 0.523 | 0.611 | 0.468 | 1.06 | 1.11 | 1.33 | 0.932 | 1 | 0.743 | 0.57 | 1.2
5 | PSFSEYASVQV [SIRPA_Y496] | 0.952 | 0.705 | 0.997 | 0.801 | 6.25 | 8.42 | 1.05 | 1.93 | 2.49 | 1.11 | 2.35 | 4.02 | 0.474 | 1.05 | 3.49 | 1.02
6 | PSGPMYRGAVP [ASAH1_Y43_T42M] | 0.842 | 0.472 | 0.926 | 1.21 | 0.34 | 0.539 | 0.573 | 0.48 | 0.467 | 0.617 | 0.334 | 0.68 | 0.483 | 0.392 | 0.347 | 0.67
7 | PSNTEYPGPHS [TP63_Y171_D170E] | 0.362 | 0.373 | 1.48 | 0.832 | 0.774 | 0.671 | 0.497 | 0.477 | 0.507 | 0.806 | 0.41 | 0.696 | 0.383 | 0.56 | 0.498 | 0.568
8 | PSTFRYERGSR [INPPL1_Y663_P659S_YF] | 0.879 | 0.47 | 0.811 | 0.484 | 0.368 | 0.47 | 0.429 | 0.345 | 0.408 | 0.51 | 0.491 | 0.628 | 0.366 | 0.411 | 0.352 | 0.459
9 | PTTKTYFLHFD [HBA1_Y43_P45L] | 1.35 | 0.985 | 1.36 | 1.79 | 1.34 | 1.14 | 2.62 | 0.816 | 0.813 | 1.66 | 0.695 | 1.51 | 0.844 | 3.23 | 0.532 | 1.98
10 | PTTKTYFPQFD [HBA1_Y43_H46Q] | 1.11 | 0.59 | 0.772 | 0.922 | 0.672 | 0.58 | 0.636 | 0.611 | 0.617 | 0.83 | 0.74 | 0.597 | 0.428 | 0.576 | 0.499 | 0.737
11 | PTTKTYFPRFD [HBA1_Y43_H46R] | 0.91 | 0.446 | 0.819 | 0.772 | 0.493 | 0.421 | 0.432 | 0.38 | 0.319 | 0.569 | 0.421 | 0.609 | 0.373 | 0.455 | 0.505 | 0.731
12 | PVDGEYFTLQI [TP53_Y327_L323V] | 0.744 | 0.512 | 0.785 | 1.86 | 1.16 | 1.36 | 9.07 | 2.38 | 4.09 | 4.07 | 3.58 | 1.38 | 0.623 | 11.4 | 1.31 | 3.14
13 | PVDTYYDSTRG [DYNC2H1_Y2231_M2227V] | 0.667 | 0.835 | 1.08 | 1.12 | 0.934 | 0.608 | 1.58 | 1.31 | 1.09 | 1.18 | 0.955 | 0.953 | 0.554 | 2.01 | 0.713 | 0.909
14 | PVDVAYRHGYF [PLEC_Y2967_R2969H] | 0.701 | 0.611 | 1.21 | 1.05 | 0.752 | 1.48 | 1.1 | 0.695 | 0.536 | 1.71 | 0.905 | 1.4 | 0.687 | 0.863 | 0.543 | 1.9
15 | PVQAAYKKVVA [HBB_Y131_Q132K] | 0.613 | 0.524 | 0.834 | 0.762 | 0.545 | 0.278 | 0.485 | 0.479 | 0.506 | 0.645 | 0.687 | 0.73 | 0.578 | 0.534 | 0.226 | 0.486
16 | PVRIAYDRPRG [SUGP2_Y985] | 0.764 | 0.623 | 0.641 | 0.737 | 0.464 | 0.691 | 0.653 | 0.426 | 0.486 | 0.923 | 0.609 | 0.671 | 0.591 | 0.384 | 0.746 | 1.44
17 | PYIDSYEKDVA [PGM1_Y521_L516P] | 0.724 | 0.647 | 0.802 | 1.48 | 0.907 | 0.857 | 1.08 | 0.725 | 0.684 | 1.66 | 0.703 | 0.961 | 0.763 | 0.907 | 0.852 | 1.61

Source: the supplement of paper PMC10065799, “High-throughput profiling of sequence recognition by tyrosine kinases and SH2 domains using bacterial peptide display” (eLife, 2023)
